Data set [1] relates to HeLa Kyoto. Put plainly: melting temperature (median over replicates), in situ; higher = more thermally stable.
Data set [2] deals with HeLa Kyoto. Nature of the data set: thermal stability score vs G1/S (z-score of summed log2 fold changes over temperatures); higher = more thermally stable than in G1/S.
Data set [3] has as its system HeLa Kyoto. Nature of the data set: solubility in G1/S (NP-40 vs SDS abundance) (log2 ratio); higher = more soluble. The note with it: cell cycle stage: G1/S.
The test system of data set [4] is HeLa Kyoto. Put plainly: solubility change mitosis vs G1/S (difference of NP-40 vs SDS log2 ratios) (log2 ratio difference); higher = more soluble in mitosis.
Where [5] appears, read: cell cycle stage: early G1 (4.5 h after nocodazole release).
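For melting temperature (median over replicates), in situ in this document: HeLa Kyoto cells synchronized by double thymidine or nocodazole block, proteins quantified by TMT10plex mass spectrometry, three independent biological replicates.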
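For solubility change mitosis vs G1/S (difference of NP-40 vs SDS log2 ratios) in this document: synchronized HeLa Kyoto cells (double thymidine block for G1/S, nocodazole release for mitosis), protein amounts in NP-40 versus SDS lysates quantified by mass spectrometry, three biological replicates.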
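For solubility in G1/S (NP-40 vs SDS abundance) in this document: HeLa Kyoto cells arrested at G1/S by double thymidine block, proteins quantified by TMT10plex mass spectrometry in mild NP-40 versus SDS extracts, three biological replicates.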
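For thermal stability score vs G1/S (z-score of summed log2 fold changes over temperatures) in this document: synchronized HeLa Kyoto cells, proteins quantified by TMT10plex mass spectrometry, three biological replicates, mitosis taken 0.5 h after nocodazole release, G1/S directly after double thymidine block.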

Consider “MGSSKKVTLSVLSREQSEGVGARVRRSIGRPELKNLDPFLLFDEFKGGRPGGFPDHPHRGFETVSYLLEGGSMAHEDFCGHTGKMNPGDLQWMTAGRGILHAEMPCSEEPAHGLQLWVNLRSSEKMVEPQYQELKSEEIPKPSKDGVTVAVISGEALGIKSKVYTRTPTLYLDFKLDPGAKHSQPIPKGWTSFIYTISGDVYIGPDDAQQKIEPHHTAVLGEGDSVQVENKDPKRSHFVLIAGEPLREPVIQHGPFVMNTNEEISQAILDFRNAKNGFERAKTWKSKIGN [PIR]”, for which the melting temperature in the data set with HeLa Kyoto [1] (cell cycle stage: G1/S) was 51.8 °C; in the data set with HeLa Kyoto [1] (cell cycle stage: mitosis) it was 51.6 °C. The thermal stability score is -1.49 in the data set with HeLa Kyoto [2] (setting [5]) and -1.89 in the data set with HeLa Kyoto [2] (cell cycle stage: mitosis). In the data set with HeLa Kyoto [3], the “solubility in G1/S (log2)” value was 0.288. Moreover, in the data set on HeLa Kyoto [4], the “solubility change mitosis (log2)” value is -0.0437.
As to “MGTRLPLVLRQLRRPPQPPGPPRRLRVPCRASSGGGGGGGGGREGLLGQRRPQDGQARSSCSPGGRTPAARDSIVREVIQNSKEVLSLLQEKNPAFKPVLAIIQAGDDNLMQEINQNLAEEAGLNITHICLPPDSSEAEIIDEILKINEDTRVHGLALQISENLFSNKVLNALKPEKDVDGVTDINLGKLVRGDAHECFVSPVAKAVIELLEKSGVNLDGKKILVVGAHGSLEAALQCLFQRKGSMTMSIQWKTRQLQSKLHEADIVVLGSPKPEEIPLTWIQPGTTVLNCSHDFLSGKVGCGSPRIHFGGLIEEDDVILLAAALRIQNMVSSGRRWLREQQHRRWRLHCLKLQPLSPVPSDIEISRGQTPKAVDVLAKEIGLLADEIEIYGKSKAKVRLSVLERLKDQADGKYVLVAGITPTPLGEGKSTVTIGLVQALTAHLNVNSFACLRQPSQGPTFGVKGGAAGGGYAQVIPMEEFNLHLTGDIHAITAANNLLAAAIDTRILHENTQTDKALYNRLVPLVNGVREFSEIQLARLKKLGINKTDPSTLTEEEVSKFARLDIDPSTITWQRVLDTNDRFLRKITIGQGNTEKGHYRQAQFDIAVASEIMAVLALTDSLADMKARLGRMVVASDKSGQPVTADDLGVTGALTVLMKDAIKPNLMQTLEGTPVFVHAGPFANIAHGNSSVLADKIALKLVGEEGFVVTEAGFGADIGMEKFFNIKCRASGLVPNVVVLVATVRALKMHGGGPSVTAGVPLKKEYTEENIQLVADGCCNLQKQIQITQLFGVPVVVALNVFKTDTRAEIDLVCELAKRAGAFDAVPCYHWSVGGKGSVDLARAVREAASKRSRFQFLYDVQVPIVDKIRTIAQAVYGAKDIELSPEAQAKIDRYTQQGFGNLPICMAKTHLSLSHQPDKKGVPRDFILPISDVRASIGAGFIYPLVGTMSTMPGLPTRPCFYDIDLDTETEQVKGLF [MTHFD1L]”, the melting temperature in the data set on HeLa Kyoto [1] (cell cycle stage: G1/S) is 51.7 °C; with HeLa Kyoto [1] (cell cycle stage: mitosis), 51.5 °C. Moreover, the values for the thermal stability score in the data set on HeLa Kyoto [2] (setting [5]) and with HeLa Kyoto [2] (cell cycle stage: mitosis) were -0.3 and 0.0484, respectively. Besides, the “solubility in G1/S (log2)” value in the data set on HeLa Kyoto [3] was determined as 0.247. Besides, the “solubility change mitosis (log2)” value with HeLa Kyoto [4] was -0.101.
Turning to “MGVPAFFRWLSRKYPSIIVNCVEEKPKECNGVKIPVDASKPNPNDVEFDNLYLDMNGIIHPCTHPEDKPAPKNEDEMMVAIFEYIDRLFSIVRPRRLLYMAIDGVAPRAKMNQQRSRRFRASKEGMEAAVEKQRVREEILAKGGFLPPEEIKERFDSNCITPGTEFMDNLAKCLRYYIADRLNNDPGWKNLTVILSDASAPGEGEHKIMDYIRRQRAQPNHDPNTHHCLCGADADLIMLGLATHEPNFTIIREEFKPNKPKPCGLCNQFGHEVKDCEGLPREKKGKHDELADSLPCAEGEFIFLRLNVLREYLERELTMASLPFTFDVERSIDDWVFMCFFVGNDFLPHLPSLEIRENAIDRLVNIYKNVVHKTGGYLTESGYVNLQRVQMIMLAVGEVEDSIFKKRKDDEDSFRRRQKEKRKRMKRDQPAFTPSGILTPHALGSRNSPGSQVASNPRQAAYEMRMQNNSSPSISPNTSFTSDGSPSPLGGIKRKAEDSDSEPEPEDNVRLWEAGWKQRYYKNKFDVDAADEKFRRKVVQSYVEGLCWVLRYYYQGCASWKWYYPFHYAPFASDFEGIADMPSDFEKGTKPFKPLEQLMGVFPAASGNFLPPSWRKLMSDPDSSIIDFYPEDFAIDLNGKKYAWQGVALLPFVDERRLRAALEEVYPDLTPEETRRNSLGGDVLFVGKHHPLHDFILELYQTGSTEPVEVPPELCHGIQGKFSLDEEAILPDQIVCSPVPMLRDLTQNTVVSINFKDPQFAEDYIFKAVMLPGARKPAAVLKPSDWEKSSNGRQWKPQLGFNRDRRPVHLDQAAFRTLGHVMPRGSGTGIYSNAAPPPVTYQGNLYRPLLRGQAQIPKLMSNMRPQDSWRGPPPLFQQQRFDRGVGAEPLLPWNRMLQTQNAAFQPNQYQMLAGPGGYPPRRDDRGGRQGYPREGRKYPLPPPSGRYNWN [XRN2]”, the melting temperature with HeLa Kyoto [1] (cell cycle stage: G1/S) is 50.2 °C; in the data set on HeLa Kyoto [1] (cell cycle stage: mitosis), 50.4 °C. In addition, the thermal stability score in the data set with HeLa Kyoto [2] (setting [5]) is 1.15; in the data set with HeLa Kyoto [2] (cell cycle stage: mitosis), 0.632. Besides, the “solubility in G1/S (log2)” value in the data set on HeLa Kyoto [3] was -0.126. In addition, in the data set on HeLa Kyoto [4], the “solubility change mitosis (log2)” value is 0.128.
For the sequence “MGVQGLWKLLECSGRQVSPEALEGKILAVDISIWLNQALKGVRDRHGNSIENPHLLTLFHRLCKLLFFRIRPIFVFDGDAPLLKKQTLVKRRQRKDLASSDSRKTTEKLLKTFLKRQAIKTAFRSKRDEALPSLTQVRRENDLYVLPPLQEEEKHSSEEEDEKEWQERMNQKQALQEEFFHNPQAIDIESEDFSSLPPEVKHEILTDMKEFTKRRRTLFEAMPEESDDFSQYQLKGLLKKNYLNQHIEHVQKEMNQQHSGHIRRQYEDEGGFLKEVESRRVVSEDTSHYILIKGIQAKTVAEVDSESLPSSSKMHGMSFDVKSSPCEKLKTEKEPDATPPSPRTLLAMQAALLGSSSEEELESENRRQARGRNAPAAVDEGSISPRTLSAIKRALDDDEDVKVCAGDDVQTGGPGAEEMRINSSTENSDEGLKVRDGKGIPFTATLASSSVNSAEEHVASTNEGREPTDSVPKEQMSLVHVGTEAFPISDESMIKDRKDRLPLESAVVRHSDAPGLPNGRELTPASPTCTNSVSKNETHAEVLEQQNELCPYESKFDSSLLSSDDETKCKPNSASEVIGPVSLQETSSIVSVPSEAVDNVENVVSFNAKEHENFLETIQEQQTTESAGQDLISIPKAVEPMEIDSEESESDGSFIEVQSVISDEELQAEFPETSKPPSEQGEEELVGTREGEAPAESESLLRDNSERDDVDGEPQEAEKDAEDSLHEWQDINLEELETLESNLLAQQNSLKAQKQQQERIAATVTGQMFLESQELLRLFGIPYIQAPMEAEAQCAILDLTDQTSGTITDDSDIWLFGARHVYRNFFNKNKFVEYYQYVDFHNQLGLDRNKLINLAYLLGSDYTEGIPTVGCVTAMEILNEFPGHGLEPLLKFSEWWHEAQKNPKIRPNPHDTKVKKKLRTLQLTPGFPNPAVAEAYLKPVVDDSKGSFLWGKPDLDKIREFCQRYFGWNRTKTDESLFPVLKQLDAQQTQLRIDSFFRLAQQEKEDAKRIKSQRLNRAVTCMLRKEKEAAASEIEAVSVAMEKEFELLDKAKGKTQKRGITNTLEESSSLKRKRLSDSKGKNTCGGFLGETCLSESSDGSSSEDAESSSLMNVQRRTAAKEPKTSASDSQNSVKEAPVKNGGATTSSSSDSDDDGGKEKMVLVTARSVFGKKRRKLRRARGRKRKT [ERCC5]”, the melting temperature in the data set with HeLa Kyoto [1] (cell cycle stage: G1/S) is 50.7 °C; in the data set on HeLa Kyoto [1] (cell cycle stage: mitosis), 51.4 °C. Also, the thermal stability score stood at 0.19 with HeLa Kyoto [2] (setting [5]) and 1.18 in the data set on HeLa Kyoto [2] (cell cycle stage: mitosis). Besides, in the data set on HeLa Kyoto [3], the “solubility in G1/S (log2)” value was -0.112. For the same sequence, the “solubility change mitosis (log2)” value with HeLa Kyoto [4] was -0.0796.
Take “MGVTCVSQMPVAEGKSVQQTVELLTRKLEMLGAEKQGTFCVDCETYHTAASTLGSQGQTGKLMYVMHNSEYPLSCFALFENGPCLIADTNFDVLMVKLKGFFQSAKASKIETRGTRYQYCDFLVKVGTVTMGPSARGISVEVEYGPCVVASDCWSLLLEFLQSFLGSHTPGAPAVFGNRHDAVYGPADTMVQYMELFNKIRKQQQVPVAGIR [MED20]”: the melting temperature was 51.7 °C with HeLa Kyoto [1] (cell cycle stage: G1/S) and 52.7 °C in the data set on HeLa Kyoto [1] (cell cycle stage: mitosis). The thermal stability score with HeLa Kyoto [2] (setting [5]) is -0.587; with HeLa Kyoto [2] (cell cycle stage: mitosis) it was -0.494. The “solubility in G1/S (log2)” value in the data set with HeLa Kyoto [3] was determined as 0.339. In addition, in the data set with HeLa Kyoto [4], the “solubility change mitosis (log2)” value is -0.0509.

The record behind these values is the supplement of paper PMC5998384.
